From paper PMC2175515, “Hfq stimulates the activity of the CCA-adding enzyme”

Biological target: Hfq (Escherichia coli, UniProt P0A6X3 1-102)
Experiment: competition; competitor 20-600 fmol vs 20 fmol labelled tRNA (N1); Same conditions as the CCA-addition assay (30 °C, 1 and 10 min); buffer, salt and pH not in the material; native 6% polyacrylamide gel
Conditions: protein: recombinant; chain copies: 6

Sequence of Hfq (P0A6X3 whole entry): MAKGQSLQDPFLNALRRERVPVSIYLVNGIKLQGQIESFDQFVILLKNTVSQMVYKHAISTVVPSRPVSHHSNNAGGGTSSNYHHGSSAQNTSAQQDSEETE

B1: pCR 2.1 TOPO run-off transcript (ssRNA)
RNA: GGGCGAAUUGGGCCCUCUAGAUGCAUGCUCGAGCGGCCGCCAGUGUGAUGGAU
B1: no binding.
